Results reported in patent US20030108554A1 (published 2003).

Tests used:
[1] = biological target: T1, purified yeast recombinant GIP90 with FLAG tag at N-terminal position and 6 histidine tail at C-terminal position
T1 chain: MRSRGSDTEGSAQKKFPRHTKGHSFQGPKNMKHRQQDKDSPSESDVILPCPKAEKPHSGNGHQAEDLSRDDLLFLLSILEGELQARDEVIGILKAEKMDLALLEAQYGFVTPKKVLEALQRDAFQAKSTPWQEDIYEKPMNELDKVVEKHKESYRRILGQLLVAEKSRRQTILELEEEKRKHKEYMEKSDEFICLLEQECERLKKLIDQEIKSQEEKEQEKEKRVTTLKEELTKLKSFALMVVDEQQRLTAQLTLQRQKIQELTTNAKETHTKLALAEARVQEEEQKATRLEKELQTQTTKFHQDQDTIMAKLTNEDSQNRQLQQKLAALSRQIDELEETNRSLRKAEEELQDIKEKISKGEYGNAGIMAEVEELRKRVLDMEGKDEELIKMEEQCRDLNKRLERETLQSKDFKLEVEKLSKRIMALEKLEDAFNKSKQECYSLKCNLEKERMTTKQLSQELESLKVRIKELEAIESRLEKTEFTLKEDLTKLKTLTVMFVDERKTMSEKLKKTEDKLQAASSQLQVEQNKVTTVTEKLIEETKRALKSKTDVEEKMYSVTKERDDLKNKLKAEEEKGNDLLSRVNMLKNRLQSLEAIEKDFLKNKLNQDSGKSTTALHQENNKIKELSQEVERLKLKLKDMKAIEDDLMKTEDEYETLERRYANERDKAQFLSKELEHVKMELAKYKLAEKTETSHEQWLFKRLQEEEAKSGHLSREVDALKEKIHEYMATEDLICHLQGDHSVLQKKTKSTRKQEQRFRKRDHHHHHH

[2] = biological target: T2, GIP90 (GPBP interacting protein 90 kDa) (human, UniProt Q4L180 1-749, limits assumed); assay: yeast two-hybrid, β-galactosidase colony lift
T2 construct: Full length; tested as GAL4 domain fusion in yeast two-hybrid/three-hybrid; fusion parts are not written as pieces
T2 sequence: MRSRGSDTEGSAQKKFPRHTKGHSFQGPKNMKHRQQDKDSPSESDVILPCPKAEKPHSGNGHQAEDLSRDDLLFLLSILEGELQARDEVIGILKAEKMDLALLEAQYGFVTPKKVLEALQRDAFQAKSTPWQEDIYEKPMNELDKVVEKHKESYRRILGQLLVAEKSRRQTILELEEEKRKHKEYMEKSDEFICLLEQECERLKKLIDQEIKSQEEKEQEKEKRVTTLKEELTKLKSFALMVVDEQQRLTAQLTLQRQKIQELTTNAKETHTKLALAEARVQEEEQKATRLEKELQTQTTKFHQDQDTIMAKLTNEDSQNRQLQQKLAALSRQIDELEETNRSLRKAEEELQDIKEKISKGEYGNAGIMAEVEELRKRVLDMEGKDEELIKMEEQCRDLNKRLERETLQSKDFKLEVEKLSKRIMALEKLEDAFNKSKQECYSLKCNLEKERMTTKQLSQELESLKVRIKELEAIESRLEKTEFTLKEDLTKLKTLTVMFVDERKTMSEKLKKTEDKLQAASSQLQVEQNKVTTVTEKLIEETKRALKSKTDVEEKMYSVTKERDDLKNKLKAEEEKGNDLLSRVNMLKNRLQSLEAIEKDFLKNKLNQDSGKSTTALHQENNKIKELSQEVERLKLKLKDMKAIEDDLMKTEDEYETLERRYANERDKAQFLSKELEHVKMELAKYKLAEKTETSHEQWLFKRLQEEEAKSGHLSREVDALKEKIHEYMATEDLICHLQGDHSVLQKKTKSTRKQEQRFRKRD
Procedure: Deletion mutants were obtained using specific primers and PCR, followed by cloning of the resulting cDNAs in the pGBT9 and pGAD424 vectors. The assays were performed in SFY526 or HF7c Saccharomyces cerevisiae strains, with pGBT9 as GAL4 binding domain vector and pGAD424 as GAL4 activation domain vector, by the lift colony assay procedure. Briefly, the yeast cells were co-transformed with constructs of both binding domain and activation domain vectors, and the co-transformants were selected in medium deficient in both tryptophan and leucine. After five days of incubation at 30° C. the colonies were tested for the expression of β-galactosidase with X-Gal substrate (0.75 mg/ml). […] When the assays were performed with the HF7c strain, the interactions were assessed by the lift colony assay procedure and by growth in medium deficient in histidine, tryptophan and leucine. For yeast three-hybrid system, we used the pBRIDGE vector, which allows the conditional expression of a third protein apart from the usual GAL4 binding and activation domain-fusion proteins of the two-hybrid system. In this case, the expression of GPBP or I-20 or GIP90 was driven by Met25 promoter, active in absence of methionine. In these experiments, the transformed SFY526 cells were plated in medium deficient in tryptophan, leucine and methionine, and subjected to the colony lift assay after five days at 30° C. […]

B1: Goodpasture antigen binding protein (GPBP) (enzyme, UniProt Q9Y5P4 1-624, looked up)
chain: MSDNQSWNSSGSEEDPETESGPPVERCGVLSKWTNYIHGWQDRWVVLKNNALSYYKSEDETEYGCRGSICLSKAVITPHDFDECRFDISVNDSVWYLRAQDPDHRQQWIDAIEQHKTESGYGSESSLRRHGSMVSLVSGASGYSATSTSSFKKGHSLREKLAEMETFRDILCRQVDTLQKYFDACADAVSKDELQRDKVVEDDEDDFPTTRSDGDFLHSTNGNKEKLFPHVTPKGINGIDFKGEAITFKATTAGILATLSHCIELMVKREDSWQKRLDKETEKKRRTEEAYKNAMTELKKKSHFGGPDYEEGPNSLINEEEFFDAVEAALDRQDKIEEQSQSEKVRLHWPTSLPSGDAFSSVGTHRFVQKPYSRSSSMSSIDLVSASDDVHRFSSQVEEMVQNHMTYSLQDVGGDANWQLVVEEGEMKVYRREVEENGIVLDPLKATHAVKGVTGHEVCNYFWNVDVRNDWETTIENFHVVETLADNAIIIYQTHKRVWPASQRDVLYLSVIRKIPALTENDPETWIVCNFSVDHDSAPLNNRCVRAKINVAMICQTLVSPPEGNQEISRDNILCKITYVANVNPGGWAPASVLRAVAKREYPKFLKRFTSYVQEKTAGKPILF
notes: Protein kinase; Fusion parts are not written as pieces
^32P incorporation into GIP90 (in vitro phosphorylation with [γ^32P] ATP, Western blot and autoradiography) [1]: resulted in ^32P incorporation into GIP90 | binding result [2]: binds
